The values below come from US20030060599A1, “Tripeptide amides that block viral infectivity and methods of use thereof” (published 2003).

Ends that are not written are not given here.

The experiment has as its target major capsid protein (p24) of HIV-1 (HIV-1 (SF-2), UniProt P03349). As to the kind of experiment: cell-based or functional assay.
As for Thr-Leu-Glu-NH2 [Thr-Leu-Glu-NH2], the “antiviral inhibitory activity as determined by p24 production and RT activity in the culture supernatants (H9 cells, HIV-1 SF-2, 100 µM peptide)” value was above 80%. As to Arg-Val-Leu-NH2 [Arg-Val-Leu-NH2], the “antiviral inhibitory activity as determined by p24 production and RT activity in the culture supernatants (H9 cells, HIV-1 SF-2, 100 µM peptide)” value is above 80%. The figure for Pro-Lys-Glu-NH2 [Pro-Lys-Glu-NH2] is above 80%; for Glu-Pro-Phe-NH2 [Glu-Pro-Phe-NH2] it is above 80%.
